Assays:
Assay in all cases: cell-based or functional assay
[1] = biological target: T1, recombinant alpha-glucosidase from Saccharomyces cerevisiae, which is a maltase (Saccharomyces cerevisiae)
[2] = biological target: DPP-IV from pig kidney (pig, UniProt P22411 38-766, limits assumed)
[3] = biological target: T1, recombinant alpha-glucosidase from …; remark: listed apart in the source
[4] = biological target: T1, recombinant alpha-glucosidase from …; remark: listed apart in the source

Chain of DPP-IV from pig kidney (P22411 38-766 limits assumed): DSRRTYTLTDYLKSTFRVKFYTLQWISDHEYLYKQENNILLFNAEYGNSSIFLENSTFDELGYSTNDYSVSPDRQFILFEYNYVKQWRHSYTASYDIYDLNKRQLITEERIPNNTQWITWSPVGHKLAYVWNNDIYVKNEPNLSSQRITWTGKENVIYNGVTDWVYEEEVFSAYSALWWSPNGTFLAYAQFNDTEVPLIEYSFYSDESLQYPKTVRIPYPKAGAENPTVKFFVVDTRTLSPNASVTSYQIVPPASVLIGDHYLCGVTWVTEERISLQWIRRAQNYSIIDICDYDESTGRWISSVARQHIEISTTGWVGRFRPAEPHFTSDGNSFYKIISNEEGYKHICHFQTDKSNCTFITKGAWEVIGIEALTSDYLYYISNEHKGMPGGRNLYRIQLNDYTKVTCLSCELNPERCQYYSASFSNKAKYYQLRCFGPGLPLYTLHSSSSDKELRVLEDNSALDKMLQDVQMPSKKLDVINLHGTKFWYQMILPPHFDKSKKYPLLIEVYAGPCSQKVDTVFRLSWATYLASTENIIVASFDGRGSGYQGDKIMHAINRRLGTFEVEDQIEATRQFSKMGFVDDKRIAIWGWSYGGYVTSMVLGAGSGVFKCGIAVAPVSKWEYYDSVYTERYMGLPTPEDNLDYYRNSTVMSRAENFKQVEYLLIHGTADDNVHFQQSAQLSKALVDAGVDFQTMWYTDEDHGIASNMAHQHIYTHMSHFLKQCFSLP

Binder | Inhibitory activity on α-glucosidase (IC50) in mg/ml [1] [mg/mL] | Inhibitory activity on α-glucosidase (IC50) in mmol/l [1] [mmol/L] | (IC50) in mmol/l, inhibition of DPP-IV [2] [mmol/L] | IC50 ratio against the AP and VAP peptides [3] [fold] | Inhibitory activity on α-glucosidase (IC50) [4] [mM] | IC50 (inhibition of the activity of α-glucosidase in vitro) [3] [mM] | IC50 ratio against acarbose [3] [fold]
VGVAPG [VGVAPG (SEQ ID NO: 7)] | 2.29 | 4.59 | 10.7 | – | – | – | –
VY [VY peptide] | 0.756 | 2.7 | – | ~135 | 2.7 | – | –
VAPFPEV [VAPFPEV (SEQ ID NO: 4)] | 2.03 | 2.68 | 1.18 | – | – | – | –
SAPLRVY [SAPLRVY (SEQ ID NO: 3)] | 1.42 | 1.76 | 1.06 | – | – | – | –
VAP [VAP peptide] | 0.0057 | 0.02 | 4.82 | – | 0.02 | 0.02 | ~595
IPI [Diprotin A (IPI)] | – | – | 0.0121 | – | – | – | –
GPL [GPL peptide] | 1.37 | 4.82 | 1.85 | ~243 | 4.82 | – | –
KY [KY peptide] | 3.39 | 11 | – | – | 11 | – | –
IY [IY peptide] | 3.6 | 12.3 | – | – | 12.3 | – | –
KW [KW peptide] | 4.24 | 12.8 | – | – | 12.8 | – | –
LKP [LKP peptide] | 2.53 | 7.11 | – | ~355 | 7.11 | – | –
VAPG [VAPG (SEQ ID NO: 6)] | 1.39 | 4.05 | 2.27 | – | – | – | –
AP [AP peptide] | 0.0025 | 0.0136 | 4.78 | – | 0.0136 | 0.0136 | ~874
AVPYQR [AVPYQR (SEQ ID NO: 5)] | 2.34 | 3.19 | 5.7 | – | – | – | –
